The record followed here is patent publication US20060240023A1 (Takeda / Millennium, published 2006).

This test concerns the target T1, ASK1-KR (human ASK1 with lysine 709 at the ATP-binding site replaced with arginine) (human, UniProt Q99683 1-1374).
T1 construct: Bait in the yeast two-hybrid screen (Brent's system); also called bait
T1 sequence (looked up): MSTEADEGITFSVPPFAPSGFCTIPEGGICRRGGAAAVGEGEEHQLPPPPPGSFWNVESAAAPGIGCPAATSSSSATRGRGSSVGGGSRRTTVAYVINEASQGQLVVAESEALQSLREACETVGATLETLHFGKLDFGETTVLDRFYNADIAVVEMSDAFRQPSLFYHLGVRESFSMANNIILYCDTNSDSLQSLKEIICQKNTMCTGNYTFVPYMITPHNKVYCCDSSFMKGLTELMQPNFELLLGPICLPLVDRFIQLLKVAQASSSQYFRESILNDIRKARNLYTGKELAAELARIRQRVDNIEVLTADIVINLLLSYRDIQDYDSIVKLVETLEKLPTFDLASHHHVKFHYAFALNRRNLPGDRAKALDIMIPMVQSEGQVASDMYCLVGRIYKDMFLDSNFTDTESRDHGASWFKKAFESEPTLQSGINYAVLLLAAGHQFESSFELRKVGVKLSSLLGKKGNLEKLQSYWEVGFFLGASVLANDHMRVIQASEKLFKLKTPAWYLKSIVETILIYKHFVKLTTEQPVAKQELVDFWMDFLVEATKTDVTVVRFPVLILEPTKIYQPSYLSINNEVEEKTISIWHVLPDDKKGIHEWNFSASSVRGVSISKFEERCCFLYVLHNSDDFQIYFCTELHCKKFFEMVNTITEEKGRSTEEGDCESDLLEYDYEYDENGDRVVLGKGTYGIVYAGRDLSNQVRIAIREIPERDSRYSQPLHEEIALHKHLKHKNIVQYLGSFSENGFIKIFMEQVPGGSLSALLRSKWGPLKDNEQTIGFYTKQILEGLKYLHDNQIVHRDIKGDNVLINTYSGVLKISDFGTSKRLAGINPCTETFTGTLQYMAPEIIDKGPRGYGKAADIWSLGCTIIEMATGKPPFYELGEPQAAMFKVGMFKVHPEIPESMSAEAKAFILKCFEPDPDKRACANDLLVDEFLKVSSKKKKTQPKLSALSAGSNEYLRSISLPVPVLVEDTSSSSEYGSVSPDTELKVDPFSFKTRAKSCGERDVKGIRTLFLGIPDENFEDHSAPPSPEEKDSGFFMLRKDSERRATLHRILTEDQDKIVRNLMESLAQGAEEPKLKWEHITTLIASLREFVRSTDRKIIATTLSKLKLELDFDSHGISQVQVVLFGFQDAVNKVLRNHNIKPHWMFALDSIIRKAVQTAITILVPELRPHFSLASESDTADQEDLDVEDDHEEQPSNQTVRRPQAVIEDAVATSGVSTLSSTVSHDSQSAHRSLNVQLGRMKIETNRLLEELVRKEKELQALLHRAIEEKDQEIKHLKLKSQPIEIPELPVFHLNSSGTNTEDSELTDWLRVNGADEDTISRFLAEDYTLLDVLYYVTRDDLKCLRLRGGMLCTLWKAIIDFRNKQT
Kind of test: yeast two-hybrid (Brent's system), ASK1-KR as bait, fetal human brain expression library as prey; positive clone. The method, then:
To identify the ASK1-binding protein, screening was conducted by the yeast two-hybrid method using Brent's system [Zervos et al., Cell, Vol. 72, p. 223-232, 1993; Gyuris et al., Cell, Vol. 75, p. 791-803, 1993] with ASK1-KR, prepared by replacing lysine (K) at the ATP-binding site (position 709) in the kinase domain of human ASK1 with arginine (R), as a bait and an expression library of fetal human brain origin as a prey. As a result, about 1200 positive clones were obtained. Database search of one of them based on its base sequence identified it as a portion of the protein coding region of the gene designated as “PGR1” (a portion corresponding to amino acid positions 35 to 127). […] Since this protein was identified as an ASK1-binding protein, it was designated as ASK1 binding protein 1 (ABP1).

B1: ABP1 (PGR1) fragment, amino acid positions 35 to 127, positive clone of the two-hybrid screen (other)
chain: MREDIASLTREHGRAYLRNRSKLWEMDNMLIQIKTQVEASEESALNHLQNPGDAAEGRAAKRCEKAEEKAKEIAKMAEMLVELVRRIEKSESS
notes: Prey from an expression library of fetal human brain origin; also called PGR1 (a portion corresponding to amino acid positions 35 to 127); prey clone
Take B1: the binding result is “binds”.
